Data on 18 molecules can be found in patent US20240034774A1 (Gilead, published 2024).

Where a chain is given by its changes, count along the chain named.

B1: Antibody A-3 (antibody, human IgG1, kappa)
heavy: QVQLLQSGAAVTKPGASVRVSCEASGYNIRDYFIHWWRQAPGQGLQWVGWINPKTGQPNNPRQFQGRVSLTRHASWDFDTFSFYMDLKALRSDDTAVYFCARQRSDYWDFDVWGSGTQVTVSSASTKGPSVFPLAPSSKSTSGGTAALGCLVKDYFPEPVTVSWNSGALTSGVHTFPAVLQSSGLYSLSSVVTVPSSSLGTQTYICNVNHKPSNTKVDKKVEPKSCDKTHTCPPCPAPELLGGPDVFLFPPKPKDTLMISRTPEVTCVVVDVSHEDPEVKFNWYVDGVEVHNAKTKPREEQYNSTYRVVSVLTVLHQDWLNGKEYKCKVSNKALPAPEEKTISKAKGQPREPQVYTLPPSREEMTKNQVSLTCLVKGFYPSDIAVEWESNGQPENNYKTTPPVLDSDGSFFLYSKLTVDKSRWQQGNVFSCSVLHEALHSHYTQKSLSLSPGK
light: DIQMTQSPSSLSASVGDTVTITCQANGYLNWYQQRRGKAPKLLIYDGSKLERGVPSRFSGRRWGQEYNLTINNLQPEDIATYFCQVYEFVVPGTRLDLKRTVAAPSVFIFPPSDEQLKSGTASVVCLLNNFYPREAKVQWKVDNALQSGNSQESVTEQDSKDSTYSLSSTLTLSKADYEKHKVYACEVTHQGLSSPVTKSFNRGEC
B2: 1.35.36-1 (antibody, human IgG1, kappa)
heavy: QVQLVQSGAEVKKPGASVRVSCKASGYNIRDYFMHWWRQAPGQGLQWVGWINPKTGQPNNPRQFQGRVTMTRHASWDFDTFSFYMDLSRLRSDDTATYFCARQRTDYWDFDVWGQGTMVTVSSASTKGPSVFPLAPSSKSTSGGTAALGCLVKDYFPEPVTVSWNSGALTSGVHTFPAVLQSSGLYSLSSVVTVPSSSLGTQTYICNVNHKPSNTKVDKKVEPKSCDKTHTCPPCPAPELLAGPDVFLFPPKPKDTLMISRTPEVTCVVVDVSHEDPEVKFNWYVDGVEVHNAKTKPREEQYNSTYRVVSVLTVLHQDWLNGKEYKCKVSNKALPLPEEKTISKAKGQPREPQVYTLPPSREEMTKNQVSLTCLVKGFYPSDIAVEWESNGQPENNYKTTPPVLDSDGSFFLYSKLTVDKSRWQQGNVFSCSVLHEALHSHYTQKSLSLSPGK
light: DIQMTQSPSSLSASVGDRVTITCQANGYLNWYQQKPGKAPKLLIYDGSNLETGVPSRFSGSRWGQEYTLTISSLQPEDIATYFCQVYEFVTPGTNLDIKRTVAAPSVFIFPPSDEQLKSGTASVVCLLNNFYPREAKVQWKVDNALQSGNSQESVTEQDSKDSTYSLSSTLTLSKADYEKHKVYACEVTHQGLSSPVTKSFNRGEC
B3: 1.36.36-1 (antibody, human IgG1, kappa)
heavy: B2 heavy with F83A
light: B2 light
B4: 1.31.35-1 (antibody, human IgG1, kappa, V domains shown)
VH: QVQLVQSGAEVTKPGASVRVSCEASGYNIRDYFIHWWRQAPGQGLQWVGWINPKTGQPNNPRQFQGRVSLTRHASWDFDTFSFYMDLKALRSDDTATYFCARQRSDYWDFDVWGSGTQVTVSS
VL: DIQMTQSPSSLSASVGDRVTITCQANGYLNWYQQKPGKAPKLLIYDGSNLETGVPSRFSGSRWGQEYTLTISSLQPEDIATYFCQVYEFVGPGTNLDIKR
B5: 1.35.35-1 (antibody, human IgG1, kappa, V domains shown)
VH: B4 VH with T12K, E23K, I34M, S69T, L70M, K88S, A89R, S105T, S115Q, Q118M
VL: B4 VL
B6: 1.32.35-1 (antibody, human IgG1, kappa, V domains shown)
VH: B4 VH with T97V, S105T
VL: B4 VL
B7: 1.33.35-1 (antibody, human IgG1, kappa, V domains shown)
VH: B4 VH with T12K, E23K, S69T
VL: B4 VL
B8: 1.34.35-1 (antibody, human IgG1, kappa, V domains shown)
VH: B4 VH with T12K, E23K, S69T, T97V, S105T
VL: B4 VL
B9: 1.36.35-1 (antibody, human IgG1, kappa, V domains shown)
VH: QVQLVQSGAEVKKPGASVRVSCKASGYNIRDYFMHWWRQAPGQGLQWVGWINPKTGQPNNPRQFQGRVTMTRHASWDFDTFSAYMDLSRLRSDDTATYFCARQRTDYWDFDVWGQGTMVTVSS
VL: B4 VL
B10: 1.35.34-1 (antibody, human IgG1, kappa)
heavy: B2 heavy
light: B2 light with R18T, K35R, P36R, T52R, S61R, N95R
B11: 1.32.36-1 (antibody, human IgG1, kappa)
heavy: B1 heavy with L5V, A10E, S105T, G242A, A336L
light: B2 light
B12: 1.36.34-1 (antibody, human IgG1, kappa)
heavy: B2 heavy with F83A
light: B2 light with R18T, K35R, P36R, T52R, S61R, N95R
B13: 1.33.36-1 (antibody, human IgG1, kappa)
heavy: B2 heavy with M34I, M70L, S88K, R89A, T105S, Q115S, M118Q
light: B2 light
B14: 1.35.33-1 (antibody, human IgG1, kappa)
heavy: B2 heavy
light: B2 light with R18T, K35R, P36R, T52R, S61R, T91V
B15: 1.31.36-1 (antibody, human IgG1, kappa)
heavy: B1 heavy with L5V, A10E, V97T, G242A, A336L
light: B2 light
B16: 1.34.36-1 (antibody, human IgG1, kappa)
heavy: B2 heavy with M34I, M70L, S88K, R89A, T97V, Q115S, M118Q
light: B2 light
B17: 1.36.32-1 (antibody, human IgG1, kappa)
heavy: B2 heavy with F83A
light: B1 light with N68T, N72S, N73S, V91T
B18: 1.35.32-1 (antibody, human IgG1, kappa)
heavy: B2 heavy
light: B1 light with N68T, N72S, N73S, V91T

The target in the first experiment is HIV-1 envelope glycoprotein gp120 of viral isolate 92US712 (HIV-1). The experiment in a line: cell-based or functional assay.
For the molecule B1, the “ADCC EC50, NK Donor 1” value worked out at 0.07 µg/mL; the “ADCC EC50, NK Donor 2” value is 0.08 µg/mL; the “ADCC EC50, NK Donor 3” value came to 0.2 µg/mL; the “ADCC Emax, NK Donor 1” value was found to be 77%. Moreover, the “ADCC Emax, NK Donor 2” value worked out at 59% and the “ADCC Emax, NK Donor 3” value was determined as 67%.

A further experiment deals with HIV-1 envelope glycoprotein gp120 of viral isolate 92US657 (HIV-1). The experiment in a line: cell-based or functional assay.
As to B1, the “ADCC EC50, NK Donor 1” value came to 0.68 µg/mL; the “ADCC EC50, NK Donor 2” value worked out at 0.67 µg/mL; the “ADCC EC50, NK Donor 3” value worked out at 1.39 µg/mL; the “ADCC Emax, NK Donor 1” value is 49%. Besides, the “ADCC Emax, NK Donor 2” value was determined as 49% and the “ADCC Emax, NK Donor 3” value stood at 56%.

Another experiment has as its target BSA (UniProt P02769 25-607). Put plainly: single-point ELISA, BSA control. Background: ELISA stands for enzyme-linked immunosorbent assay.
As to B2, the “ELISA A450” value is 0.06 A450.

Turning to B3, the “ELISA A450” value came to 0.06 A450.

Consider B4, for which the “ELISA A450” value amounted to 0.06 A450.

Take B5: the “ELISA A450” value stood at 0.06 A450.

As for B6, the “ELISA A450” value was 0.06 A450.

Take B7: the “ELISA A450” value worked out at 0.07 A450.

As to B8, the “ELISA A450” value is 0.06 A450.

For the molecule B9, the “ELISA A450” value was 0.06 A450.

B10: the “ELISA A450” value is 0.06 A450.

As to B11, the “ELISA A450” value is 0.06 A450.

For the molecule B12, the “ELISA A450” value is 0.07 A450.

On to B13, for which the “ELISA A450” value was found to be 0.06 A450.

On to B14, for which the “ELISA A450” value amounted to 0.06 A450.

Regarding B15, the “ELISA A450” value was determined as 0.06 A450.

As to B16, the “ELISA A450” value came to 0.07 A450.

For B17, the “ELISA A450” value is 0.07 A450.

In the case of B18, the “ELISA A450” value was 0.06 A450.

The target in another experiment is gp120 Bal (HIV (Bal)). The experiment in a line: single-point ELISA at EC50 conc. of A-1.
Regarding B2, the “ELISA A450” value is 0.85 A450.

For B3, the “ELISA A450” value came out at 1.12 A450.

B4: the “ELISA A450” value is 0.9 A450.

B5: the “ELISA A450” value turned out to be 0.88 A450.

As for B6, the “ELISA A450” value came to 0.89 A450.

On to B7, for which the “ELISA A450” value stood at 1.03 A450.

For the molecule B8, the “ELISA A450” value is 0.94 A450.

As for B9, the “ELISA A450” value amounted to 0.89 A450.

With B10, the “ELISA A450” value turned out to be 1 A450.

In the case of B11, the “ELISA A450” value was 0.92 A450.

Take B12: the “ELISA A450” value was found to be 1.01 A450.

For B13, the “ELISA A450” value is 0.94 A450.

With B14, the “ELISA A450” value stood at 0.9 A450.

With B15, the “ELISA A450” value is 1.06 A450.

For B16, the “ELISA A450” value came out at 0.94 A450.

Turning to B17, the “ELISA A450” value was 0.96 A450.

Consider B18, for which the “ELISA A450” value stood at 0.96 A450.

For another experiment, the target named is gp120 SHIV SF162 P3 (SHIV SF162 P3). Put plainly: single-point ELISA at EC50 conc. of A-1.
Regarding B2, the “ELISA A450” value worked out at 0.56 A450.

For B3, the “ELISA A450” value is 0.14 A450.

With B4, the “ELISA A450” value came out at 0.61 A450.

Regarding B5, the “ELISA A450” value was 0.42 A450.

For B6, the “ELISA A450” value was 0.5 A450.

Take B7: the “ELISA A450” value amounted to 0.71 A450.

In the case of B8, the “ELISA A450” value came to 0.56 A450.

With B9, the “ELISA A450” value was found to be 0.16 A450.

Regarding B10, the “ELISA A450” value stood at 0.58 A450.

As for B11, the “ELISA A450” value is 0.62 A450.

With B12, the “ELISA A450” value was 0.15 A450.

Consider B13, for which the “ELISA A450” value is 0.88 A450.

In the case of B14, the “ELISA A450” value came out at 0.65 A450.

As to B15, the “ELISA A450” value was 0.93 A450.

With B16, the “ELISA A450” value was found to be 0.77 A450.

In the case of B17, the “ELISA A450” value was 0.18 A450.

In the case of B18, the “ELISA A450” value was 0.58 A450.

The next experiment deals with gp120 CAAN (HIV (CAAN)). Put plainly: single-point ELISA at EC50 conc. of A-1.
Regarding B2, the “ELISA A450” value stood at 0.67 A450.

On to B3, for which the “ELISA A450” value worked out at 0.34 A450.

B4: the “ELISA A450” value stood at 0.77 A450.

Consider B5, for which the “ELISA A450” value was determined as 0.67 A450.

Consider B6, for which the “ELISA A450” value came to 0.59 A450.

Turning to B7, the “ELISA A450” value turned out to be 0.81 A450.

With B8, the “ELISA A450” value came out at 0.77 A450.

Turning to B9, the “ELISA A450” value is 0.36 A450.

Regarding B10, the “ELISA A450” value came to 0.85 A450.

With B11, the “ELISA A450” value is 0.64 A450.

With B12, the “ELISA A450” value was determined as 0.43 A450.

With B13, the “ELISA A450” value was 0.82 A450.

Turning to B14, the “ELISA A450” value worked out at 0.91 A450.

For B15, the “ELISA A450” value worked out at 0.9 A450.

As to B16, the “ELISA A450” value amounted to 0.71 A450.

Turning to B17, the “ELISA A450” value was determined as 0.5 A450.

With B18, the “ELISA A450” value was found to be 1.01 A450.
